The target in experiment [1] is T1, RSV prefusion F (preF), subtype B (respiratory syncytial virus subtype B).
T1 construct: also called Prefusion subtype B
As to the kind of experiment: BLI, IgG.

Experiment [2] concerns the target T2, RSV postfusion F (postF), subtype A (respiratory syncytial virus subtype A, UniProt P03420 26-513).
T2 construct: also called Postfusion subtype A; F deltaFP
As to the kind of experiment: BLI, IgG. On the technique in general: In BLI a coated tip is dipped into the sample, and binding shifts an interference pattern.

The target of experiment [3] is RSV F on RSV-A2 virus (Respiratory Syncytial Virus (RSV-A2), UniProt P03420 26-574). The experiment can be described thus: cell-based or functional assay.
The target of experiment [4] is RSV prefusion F (preF), DS-Cav1 (Respiratory Syncytial Virus, UniProt P03420 26-513). The experiment can be described thus: BLI, IgG on anti-human IgG sensor, 100 nM antigen, 1:1 fit.
The target of experiment [5] is RSV postfusion F (postF), F ΔFP (Respiratory Syncytial Virus, UniProt P03420 26-513). The experiment is described as above.

B1: ADI-22768 (antibody, V domains shown)
VH: EVQLVESGGGLVQPGGSLRLSCAASGFTFSSYEMNWVRQAPGKGLEWVSYISSSGSTIYYADSVKGRFTISRDNAKNSLYLQMNSLRAEDTAVYYCAKSYIYDSSGYYLYYFDYWGQGTLVTVSS
VL: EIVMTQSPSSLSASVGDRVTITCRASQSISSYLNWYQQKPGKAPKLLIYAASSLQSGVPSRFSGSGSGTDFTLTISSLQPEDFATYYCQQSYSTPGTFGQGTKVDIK
notes: full-length IgG
In general, Kd refers to the free concentration of one partner at which half of the binding sites on the other are occupied at equilibrium, for simple one-to-one binding. Consider B1, for which the Kd in experiment [1] came to 4.57 nM; in experiment [2], 3.41 nM.

B2: ADI-14381 (antibody, V domains shown)
VH: EVQLVESGGGLVQPGGSLRLSCAASGFTFSSYSMNWVRQAPGKGLEWVSYIGSSSSSVYYGDSAKGRFTISRDNAKNSLYLQMNSLRDEDTALYYCARVGWLQYCRGGSCYASFGMDVWGQGTTVTVSS
VL: DIQMTQSPSSLSASVGDRVTITCRASQGIRNDLGWYQQKPGIAPKLLIYAASSLQSGVPSRFSGSGSGTDFTLTISSLQPEDFATYYCLQDYDSPYTFGQGTKLEIK
notes: full-length IgG; also called Ab 49
Turning to B2, the dissociation constant Kd in experiment [1] worked out at 36.7 nM; in experiment [2], 0.754 nM.

B3: ADI-22775 (antibody, V domains shown)
VH: EVQLLESGGGVVQPGRSLRLSCAASGFTFSDYGMHWVRQAPGKGLEWVAVIWYDGSYKYYADSVKGRFTISRDNSKNTLFLQMNSLRAEDTAVYYCARESLQTHDAFDIWGQGTMVTVSS
VL: DIQMTQSPSSLSASVGDRVTITCRASQGISNSLAWYQQKPGKAPKLLLYAASRLESGVPSRFSGSGSGTDYTLTINSLQPEDFATYFCQQYYSTLTWTFGQGTKVDIK
notes: full-length IgG
In the case of B3, the Kd in experiment [2] worked out at 30 nM. This lies in the double-digit nanomolar range.

B4: ADI-14386 (antibody, V domains shown)
VH: EVQLVESGGGLVQPGGSLRLSCAASRFTFSSYAMSWVRQAPGKGLEWVSGIGASGGTTYYADSVKGRFTISRDNSKNTVYLQMNSLRAEDTAVYYCARCEYYYGSGSAGYYFDYWGQGTLVTVSS
VL: SYELTQPPSVSVSPGQTASITCSGDKLGSKFAFWYQQKPGQSPVLVIFQDVKRPSGIPERFSGSNSGNTATLTISGTQAMDEADYYCQAWDSGTAVFGGGTKVTVL
notes: full-length IgG; also called Ab 54
For B4, the dissociation constant Kd in experiment [1] amounted to 3.04 nM; in experiment [2], 1.32 nM.

B5: ADI-14362 (antibody, V domains shown)
VH: EVQLLESGGGLVQPGGSLRLSCAASGFTFSSYAMSWVRQAPGKGLEWVSGISGSGGSTYYADSVKGRFTISRDNSKNTLYLEMNSLRAEDTAVYYCAKRYYYGSGTYTFDIWGQGTMVTVSS
VL: not shown
notes: full-length IgG; also called Ab 30
Consider B5, for which the Kd was determined as 119 nM in experiment [1] and 15.7 nM in experiment [2].

B6: ADI-14373 (antibody, V domains shown)
VH: QVQLQQWGAGLLKPSETLSLTCAVYGGSFSGSYWSWIRQPPGKGLEWIGEINHSGSTSYNPSLKSRVTISVDTSKKQFSLKLSSMTAADTAVYYCAGGFYYDSSGSYAPHPTFDYWGQGTLVTVSS
VL: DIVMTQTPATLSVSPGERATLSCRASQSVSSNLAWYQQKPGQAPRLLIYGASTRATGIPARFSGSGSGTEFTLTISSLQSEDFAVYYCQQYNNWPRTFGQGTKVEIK
notes: full-length IgG; also called Ab 41
Take B6: the Kd came to 15.9 nM in experiment [1] and 1.06 nM in experiment [2].

B7: ADI-22779 (antibody, V domains shown)
VH: QVQLQQWGAGLLKPSETLSLTCAVYGGSFSDYSWTWIRQPPGKGLEWIGEISHTGITNYNPSLKSRVNISVDTSKNQFSLKLSSVTAADTAVYYCARADAYDSSGYYVYYFDYWGQGTLVTVSS
VL: DIQVTQSPPSLSASVGDRVTITCRASQTIASYLNWYHQKPGKAPELLIYAASSLQSGVPSRFSGSGSGTAFTLTISSLQPEDFATYYCQQSYSAPPSFGQGTKVEIK
notes: full-length IgG
B7 gave a Kd in experiment [2] of 6.2 nM.

B8: ADI-14359 (antibody, V domains shown)
VH: QVQLVQSGPALVKPTQTLTLTCTFSGFSLSTSGMCVSWIRQPPGKALEWLARIDWDDDKYYSTSLKTRLTISKDTSKNQVVLTMTNMDPVDTATYYCARATNYDSSGYYSLYFDYWGQGTLVTVSS
VL: not shown
notes: full-length IgG; also called Ab 27
Take B8: the figures for the Kd in experiment [1] and in experiment [2] were 34.6 nM and 4.11 nM, respectively.

B9: ADI-24818 (antibody, V domains shown)
VH: not shown
VL: QPVLTQPASVSGSPGQSITISCTGTSSDVGGYNYVSWYQQHPGKAPKLMIYDVSNRPSGVSNRFSGSKSGNTASLTISGLQAEDEADYYCSSYTSSSTLVFGGGTQLTVL
notes: full-length IgG; also called Ab 380
B9 returned a dissociation constant Kd in experiment [2] of 6.47 nM.

B10: ADI-14348 (antibody, V domains shown)
VH: QVQLVESGGGVAQPGGSLRLSCVASGFTFSNYGMHWVRQAPGKGLEWVAFIRSDGSKKYYGDSGKGRFTISRDNSKNTLYLQMNSLRAEDTALYYCARERAGATFAFDIWGQGTTVTVSS
VL: QSALTQPRSVSGSPGQSVTISCTGTSSDVGGYNFVSWYQHHPGKAPKLMIYDVTNRPSGVPDRFSGSKSGNTASLTISGLQADDEADYYCCSYAGGFTFYVFGTGTKVTVL
notes: full-length IgG; also called Ab 16
For B10, the figures for the dissociation constant Kd in experiment [1] and in experiment [2] were 110 nM and 5.66 nM, respectively.

B11: ADI-24808 (antibody, V domains shown)
VH: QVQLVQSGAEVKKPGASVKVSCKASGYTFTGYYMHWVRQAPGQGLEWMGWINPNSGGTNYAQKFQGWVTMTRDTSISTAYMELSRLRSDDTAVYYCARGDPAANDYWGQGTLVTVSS
VL: QPVLTQPPSASGSPGQSVTISCTGTSSDVGGYNYVSWYQQHPGKAPKLMIYEVSKRPSGVPDRFSGSKSGNTASLTVSGLQAEDEADYYCSSYAGSNNVVFGGGTKLTVL
notes: full-length IgG
Molecule B11 displayed a Kd in experiment [2] of 10.8 nM.

B12: ADI-24851 (antibody, V domains shown)
VH: not shown
VL: QSVLIQPPSASGSPGQSVTISCTGTSSDVGGYNYVSWYQQHPGKAPKLMIYEVSKRPSGVPDRFSGSKSGNTASLTVSGLQAEDEADYYCSSYAGSNNVVFGGGTKLTVL
notes: full-length IgG
In turn, B12 yielded a dissociation constant Kd in experiment [2] of 20.9 nM. Compared with the last molecule, the Kd is about 1.9-fold higher.

B13: ADI-14382 (antibody, V domains shown)
VH: EVQLLESGGGVVQPGRSLRLSCAASGFTFSAYGFHWVRQAPGKGLEWVAVIWFDGNNKYYADSMKGRFIISRDNSKNTLYLQMNSLRAEDTAVYYCARDPKETGEFDYWGQGTLVTVSS
VL: QSALTQPASVSGSPGQSITISCTGTISDVGRYNYVSWYQQHPGKAPKLMIYDVTNRPSGVSNRFSGSKSGNTASLTISGLQAEDEAVYYCCSYTISSTYVFGTGTKLTVL
notes: full-length IgG; also called Ab 50
For the molecule B13, in experiment [2], the Kd amounted to 0.846 nM.

B14: ADI-19485 (antibody, V domains shown)
VH: QVQLQESGPGLVKPSQTLSLSCTVSGGSISSTNYYWTWIRQHPGKGLEWIGFIYNRGSTYYNPSLTSRVTISVDTSKNQFSLKLTSVTAADTAVYYCARAPYYYDRNGYYTAFDIWGQGTTVTVSS
VL: EIVLTQSPATLSVSPGERATLSCRASQSVSSNLAWYQQKPGQAPRLLIYDASTRATDIPARFSGGGSGTEFTLTISSLQSEDFAVYYCQQYNNWPRTFGLGTKVDIK
notes: full-length IgG
As to B14, the dissociation constant Kd in experiment [2] amounted to 0.251 nM.

B15: ADI-41551 (antibody, V domains shown)
VH: QVQLQESGGGVVQPGGSLRLSCAASGFTFSRHWMHWVRQVPGKGLVWVSRINSDESTIDYADSVKGRFTISRDNAKNTLYLQMNSLRAEDTAVYYCVRDMVAVPGTTGGDYWGQGTLVTVSS
VL: SYELTQPPSVSVSPGQTADITCSGDKLGDKYACWYQQRAGQSPILVLYQDTRRPSGIPERFSGSNSGDTATLTISGTQAMDEADYYCQAWDSSTAWVFGGGTKLTVL
notes: also called Ab 823; Antibody Number 823
Regarding B15, the “Neutralization IC50 (RSV subtype A)” value in experiment [3] was over 25 µg/mL. Also, the results for the dissociation constant (Kd) in experiment [4] and in experiment [5] were 13 nM and 23.8 nM, respectively.

B16: ADI-14384 (antibody, V domains shown)
VH: QVQLQESGSGLVKPSQTLSLTCTVSGGSISSVGYSWSWIRQPPGKGLEWIGYIYHSGSPYYSPSLNSRVTISVDRSKNQFSLKLSSVTAADTAVYFCARVFFGGGGAFDIWGQGTTVTVSS
VL: QPGLTQPPSVSVAPGQTARITCGGNNIGSKSVQWYQQKPGQAPVLVMYYDSDRPSGIPDRFSGSSSGNTATLTITRVEAGDEADYSCQVWDSVNVHPVIFGGGTKLTVL
notes: full-length IgG; also called Ab 52
As for B16, the equilibrium dissociation constant (Kd) in experiment [1] was 4.78 nM; in experiment [2] it was 0.469 nM.

B17: ADI-14343 (antibody, V domains shown)
VH: QVQLVQSGAEVKKPGSSVKVSCKASGGTFSSYGVNWVRQAPGQGLEWMGRIIPMFGTSNYAQKFQGRVTITADGSTSTAYMELSSLRSEDTAVYYCARVGSPTTGAIMGVWGQGTTVTVSS
VL: DIVLTQTPLSLPVTPGEPASISCRSSQSLLQSNGFNYLDWYLQKPGQSPKLLIYMGSNRASGVPDRFSGSGSGTDFTLIISRVEAEDVGVYYCMQAIESPLTFGGGTKVDIK
notes: full-length IgG; also called Ab 11
Turning to B17, the equilibrium dissociation constant (Kd) in experiment [1] was found to be 38.1 nM; in experiment [2], 2.94 nM.
